From patent US20030049702A1 (BURNHAM INSTITUTE, published 2003)

Experiments:
Experiment in all cases: GST pull-down of in vitro translated 35S-labeled protein, autoradiography; '-' = no interaction
[1] = biological target: T1, FADD (in vitro translated, 35S-labeled) (human, UniProt Q13158 1-208)
T1 sequence (looked up): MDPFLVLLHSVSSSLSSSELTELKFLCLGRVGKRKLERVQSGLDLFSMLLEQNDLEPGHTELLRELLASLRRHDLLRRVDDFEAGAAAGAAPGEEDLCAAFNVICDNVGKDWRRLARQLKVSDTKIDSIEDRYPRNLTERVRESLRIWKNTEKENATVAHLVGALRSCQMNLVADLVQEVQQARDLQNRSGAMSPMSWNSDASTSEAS

[2] = biological target: T2, TNF-RI (in vitro translated, 35S-labeled) (human, UniProt P19438 1-455, limits assumed)
T2 construct: also called TNFR1
T2 sequence (looked up): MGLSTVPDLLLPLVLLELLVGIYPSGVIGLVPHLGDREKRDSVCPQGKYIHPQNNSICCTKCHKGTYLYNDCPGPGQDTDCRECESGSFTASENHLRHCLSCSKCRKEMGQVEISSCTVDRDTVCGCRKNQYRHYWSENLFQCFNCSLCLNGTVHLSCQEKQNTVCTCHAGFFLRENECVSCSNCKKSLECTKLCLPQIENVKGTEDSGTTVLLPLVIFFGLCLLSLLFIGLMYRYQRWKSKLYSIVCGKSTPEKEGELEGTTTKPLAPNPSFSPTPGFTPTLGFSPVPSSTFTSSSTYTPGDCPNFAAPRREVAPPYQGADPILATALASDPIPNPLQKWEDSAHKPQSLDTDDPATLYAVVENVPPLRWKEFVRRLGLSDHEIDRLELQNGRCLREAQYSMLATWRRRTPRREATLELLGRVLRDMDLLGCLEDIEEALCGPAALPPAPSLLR

[3] = biological target: T3, RIP (in vitro translated, 35S-labeled) (human, UniProt Q13546 1-671, limits assumed)
T3 sequence (looked up): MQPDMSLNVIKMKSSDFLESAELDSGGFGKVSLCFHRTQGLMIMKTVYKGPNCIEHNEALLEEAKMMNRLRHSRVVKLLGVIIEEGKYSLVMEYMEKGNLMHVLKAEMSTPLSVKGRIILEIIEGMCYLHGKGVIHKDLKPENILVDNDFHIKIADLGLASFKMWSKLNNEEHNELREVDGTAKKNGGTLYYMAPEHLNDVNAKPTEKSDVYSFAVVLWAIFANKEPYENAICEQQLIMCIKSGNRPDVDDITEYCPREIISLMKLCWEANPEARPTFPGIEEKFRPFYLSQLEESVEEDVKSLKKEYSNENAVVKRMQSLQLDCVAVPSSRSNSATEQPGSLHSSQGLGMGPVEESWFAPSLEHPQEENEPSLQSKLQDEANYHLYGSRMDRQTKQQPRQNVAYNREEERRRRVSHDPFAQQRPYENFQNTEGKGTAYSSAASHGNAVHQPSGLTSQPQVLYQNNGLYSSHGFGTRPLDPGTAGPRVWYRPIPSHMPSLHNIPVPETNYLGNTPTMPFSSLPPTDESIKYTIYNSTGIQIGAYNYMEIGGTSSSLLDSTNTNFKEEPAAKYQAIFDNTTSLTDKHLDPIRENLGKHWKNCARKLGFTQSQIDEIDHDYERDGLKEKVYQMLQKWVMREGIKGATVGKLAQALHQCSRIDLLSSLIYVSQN

[4] = biological target: Dr-5 (in vitro translated, 35S-labeled) (human, UniProt O14763 1-440, limits assumed)
[5] = biological target: T4, Fas (in vitro translated, 35S-labeled) (human, UniProt P25445 1-335, limits assumed)
T4 construct: also called Fas [CD95]
T4 sequence (looked up): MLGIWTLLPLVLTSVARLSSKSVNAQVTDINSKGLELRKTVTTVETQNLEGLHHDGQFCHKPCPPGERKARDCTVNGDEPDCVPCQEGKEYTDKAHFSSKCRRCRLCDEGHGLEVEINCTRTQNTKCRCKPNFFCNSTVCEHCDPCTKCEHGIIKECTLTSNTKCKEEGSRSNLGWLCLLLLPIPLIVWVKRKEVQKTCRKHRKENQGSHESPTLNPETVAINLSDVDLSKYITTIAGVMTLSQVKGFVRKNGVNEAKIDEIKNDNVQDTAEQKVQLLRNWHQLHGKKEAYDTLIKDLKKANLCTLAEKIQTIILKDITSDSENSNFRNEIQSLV

[6] = biological target: c-Flip (in vitro translated, 35S-labeled) (human, UniProt O15519 1-480)
[7] = biological target: Dr-4 (in vitro translated, 35S-labeled) (human, UniProt O00220 1-468, limits assumed)
[8] = biological target: RAIDD (in vitro translated, 35S-labeled) (human, UniProt P78560 1-199)

Measured: binding result

Chain of c-Flip (in vitro translated, 35S-labeled) (O15519 whole entry): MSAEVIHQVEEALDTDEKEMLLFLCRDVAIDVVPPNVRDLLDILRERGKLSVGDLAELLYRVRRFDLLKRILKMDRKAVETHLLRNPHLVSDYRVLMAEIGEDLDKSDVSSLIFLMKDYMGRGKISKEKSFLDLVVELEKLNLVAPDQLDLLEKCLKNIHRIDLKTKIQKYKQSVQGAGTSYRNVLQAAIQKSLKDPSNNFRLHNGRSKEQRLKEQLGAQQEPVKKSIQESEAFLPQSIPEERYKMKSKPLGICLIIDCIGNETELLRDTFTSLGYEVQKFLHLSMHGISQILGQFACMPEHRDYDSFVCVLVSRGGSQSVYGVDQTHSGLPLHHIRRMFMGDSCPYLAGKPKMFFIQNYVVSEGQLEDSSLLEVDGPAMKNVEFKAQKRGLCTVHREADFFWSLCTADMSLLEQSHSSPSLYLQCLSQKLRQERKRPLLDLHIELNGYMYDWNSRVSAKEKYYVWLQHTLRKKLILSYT
Chain of RAIDD (in vitro translated, 35S-labeled) (P78560 whole entry): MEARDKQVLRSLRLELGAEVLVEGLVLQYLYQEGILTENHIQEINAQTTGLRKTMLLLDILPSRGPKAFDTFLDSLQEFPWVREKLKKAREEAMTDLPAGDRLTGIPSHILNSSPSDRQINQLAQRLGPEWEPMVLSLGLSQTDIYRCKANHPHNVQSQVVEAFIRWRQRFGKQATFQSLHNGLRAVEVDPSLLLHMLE

B1: GST-CD40 (cytosolic domain) (other, UniProt P25942 216-277, looked up)
chain: KKVAKKPTNKAPHPKQEPQEINFPDDLPGSNTAAPVQETLHGCQPVTQEDGKESRISVQERQ
notes: domain: cytosolic domain; Control fusion protein; not shown: glutathione S-transferase
no binding: [1] | [2] | [3] | [4] | [5] | [6] | [7] | [8]
